The record followed here is patent US20260151539A1 (University of Washington, published 2026).

B1: T40A mutant (SEQ ID NO: 82) (designed binder)
chain: MRGSHHHHHHGSGRGDSGSGSGSGSGSGSGAPQMLRELQEANAALQDVRELLRQQVKEITFLKNTVMESDASGSGSGSGSGSVDGSPAGSPTSTEEGTSESATPESGPGTSTEPSEGSAPGSPAGSPTSTEEGTSTEPSEGSAPGTSTEPSEGSAPGTSESATPESGPGSEPATSGSETPGSEPATSGSETPGSPAGSPTSTEEGTSESATPESGPGTSTEPSEGSAPLESGSGSGSGSGSGAPQMLRELQEANAALQDVRELLRQQVKEITFLKNTVMESDASGSGSGSGSGSGSGRGDSHHHHHHKLN
B2: Q54A mutant (SEQ ID NO: 83) (designed binder)
chain: MRGSHHHHHHGSGRGDSGSGSGSGSGSGSGAPQMLRELQETNAALQDVRELLRQAVKEITFLKNTVMESDASGSGSGSGSGSVDGSPAGSPTSTEEGTSESATPESGPGTSTEPSEGSAPGSPAGSPTSTEEGTSTEPSEGSAPGTSTEPSEGSAPGTSESATPESGPGSEPATSGSETPGSEPATSGSETPGSPAGSPTSTEEGTSESATPESGPGTSTEPSEGSAPLESGSGSGSGSGSGAPQMLRELQETNAALQDVRELLRQAVKEITFLKNTVMESDASGSGSGSGSGSGSGRGDSHHHHHHKLN
B3: T40A+Q54A mutant (SEQ ID NO: 84) (designed binder)
chain: MRGSHHHHHHGSGRGDSGSGSGSGSGSGSGAPQMLRELQEANAALQDVRELLRQAVKEITFLKNTVMESDASGSGSGSGSGSVDGSPAGSPTSTEEGTSESATPESGPGTSTEPSEGSAPGSPAGSPTSTEEGTSTEPSEGSAPGTSTEPSEGSAPGTSESATPESGPGSEPATSGSETPGSEPATSGSETPGSPAGSPTSTEEGTSESATPESGPGTSTEPSEGSAPLESGSGSGSGSGSGAPQMLRELQEANAALQDVRELLRQAVKEITFLKNTVMESDASGSGSGSGSGSGSGRGDSHHHHHHKLN
B4: PXP (SEQ ID NO: 81) (designed binder)
chain: MRGSHHHHHHGSGRGDSVDGSGSGSGSGSGSGAPQMLRELQETNAALQDVRELLRQQVKEITFLKNTVMESDASGSGSGSGSGSGSLDGSPAGSPTSTEEGTSESATPESGPGTSTEPSEGSAPGSPAGSPTSTEEGTSTEPSEGSAPGTSTEPSEGSAPGTSESATPESGPGSEPATSGSETPGSEPATSGSETPGSPAGSPTSTEEGTSESATPESGPGTSTEPSEGSAPLDGSGSGSGSGSGSGAPQMLRELQETNAALQDVRELLRQQVKEITFLKNTVMESDASGSGSGSGSGSGSLEGRGDSHHHHHHKLN

The series deals with the molecule itself. Nature of the series: cell-based or functional assay.
Regarding B1, the “Recovery Time Crossover [s], 25 C” value was 4.51 s; the “Recovery Time Crossover [s], 37 C” value was 4.58 s; the “Strain crossover (G'' > G'), 25 C” value stood at 127 % strain; the “Strain crossover (G'' > G'), 37 C” value stood at 143 % strain.

For B2, the “Recovery Time Crossover [s], 25 C” value was determined as 4.45 s; the “Recovery Time Crossover [s], 37 C” value is 4.39 s; the “Strain crossover (G'' > G'), 25 C” value stood at 116 % strain; the “Strain crossover (G'' > G'), 37 C” value worked out at 132 % strain.

Consider B3, for which the “Recovery Time Crossover [s], 25 C” value came to 4.39 s; the “Recovery Time Crossover [s], 37 C” value was 4.38 s; the “Strain crossover (G'' > G'), 25 C” value was found to be 119 % strain; the “Strain crossover (G'' > G'), 37 C” value worked out at 95 % strain.

For B4, the “Recovery Time Crossover [s], 25 C” value was 4.79 s; the “Recovery Time Crossover [s], 37 C” value turned out to be 7.91 s; the “Strain crossover (G'' > G'), 25 C” value was found to be 161 % strain; the “Strain crossover (G'' > G'), 37 C” value was found to be 151 % strain.
